Tests used:
MstX (NCgl1216) [1] = target: T1, MstX (NCgl1216) (Corynebacterium glutamicum, UniProt Q8NR03); test: Mtr-coupled NADPH oxidation at […] nm (thiol transferase assay); assay type: biochemical; details: 100 mM MSH, 300 μM NADPH, 5 μM Mtr, 50 mM potassium phosphate pH 7.6, 25 °C
T1 construct: gene Cgl1264; full length, 359 residues, 40,619 Da; pET28a His6 fusion from E. coli BL21(DE3), tag cleaved; monomer

MstX (NCgl1216) [2] = target: T2, MstX (NCgl1216) (Corynebacterium glutamicum, UniProt Q8NR03, C262S); test: MALDI-TOF MS of S-mycothiolated protein; assay type: binding; details: covalent; mixed disulfide at Cys67; formed with H2O2
T2 construct: gene Cgl1264

CC(C)(C)OO = test: purified protein; details: 500 μM MSH, 4 μM Mtr, 250 μM NADPH, 1 mM EDTA, 50 mM Tris-HCl pH 7.5
purified protein = substrate: O=C1O[C@H]([C@@H](O)CO)C(=O)C1=O; test: purified protein; assay type: biochemical, Corynebacterium glutamicum; details: 100 mM MSH, 300 μM NADPH, 5 μM Mtr, 50 mM potassium phosphate pH 7.6, 25 °C
CC(C)(OO)c1ccccc1 = test: purified protein; details: 500 μM MSH, 4 μM Mtr, 250 μM NADPH, 1 mM EDTA, 50 mM Tris-HCl pH 7.5

**Q.** How did the Km (MstX (NCgl1216) [1]) turn out when OCCSSCCO [HED] was run?
**A.** Its Km is 192 ± 30 µM.

**Q.** Which “MALDI-TOF MS of S-mycothiolated protein” value (MstX (NCgl1216) [2]) does the source give for CC(=O)N[C@@H](CS)C(=O)NC1[C@@H](O[C@@H]2[C@H](O)[C@H](O)[C@@H](O)[C@H](O)[C@H]2O)O[C@H](CO)[C@@H](O)[C@@H]1O (stereo partly drawn) [MSH] here?
**A.** Its value is “Pure S-mycothiolated MstX:C262S were confirmed by Matrix-Assisted Laser Desorption/Ionization Time of Flight Mass Spectrometry”.

**Q.** Which Km (CC(C)(C)OO) does the source give for “MstX (NCgl1216) (Corynebacterium glutamicum ATCC 13032)” here?
**A.** Its Km is 301.3 ± 46.62 µM.

**Q.** And the kcat (CC(C)(C)OO)?
**A.** The kcat was 0.135 ± 0.006 s⁻¹.

B1: MstX (NCgl1216) (Corynebacterium glutamicum ATCC 13032) (protein)
chain: MANTSSDWAGAPQNASADGEFVRDTNYIDDRIVADVPAGSEPIAQEDGTFHWPVEAGRYRLVAARACPWAHRTVITRRLLGLENVISLGLTGPTHDVRSWTFDLDPNHLDPVLQIPRLQDAYFNRFPDYPRGITVPALVEESSKKVVTNDYPSITIDFNLEWKQFHREGAPNLYPAELREEMAPVMKRIFTEVNNGVYRTGFAGSQEAHNEAYKRLWVALDWLEDRLSTRRYLMGDHITEADIRLYPTLVRFDAVYHGHFKCGRNKITEMPNLWGYLRDLFQTPGFGDTTDFTEIKQHYYITHAEINPTRIVPVGPDLSGFATPHGREKLGGSPFAEGVTLPGPIPAGEEVKNPEPFQK
notes: full length, 359 residues, 40,619 Da; pET28a His6 fusion from E. coli BL21(DE3), tag cleaved; monomer
**Q.** Which results are given for B1?
**A.** Km (purified protein): 1115 ± 252 µM; kcat (purified protein): 573 ± 44.3 s⁻¹; kcat/Km (purified protein): 571000 ± 410000 M⁻¹ s⁻¹; Km (CC(C)(OO)c1ccccc1): 328.1 ± 33.27 µM; kcat (CC(C)(OO)c1ccccc1): 0.153 ± 0.005 s⁻¹

From paper PMC6815410, “Characterization of Xi-class mycothiol S-transferase from Corynebacterium glutamicum and its protective effects in oxidative stress” (Microbial Cell Factories, 2019)
